How the values were obtained:
[1] = target: C-terminal deletion VP1 mutant (ΔC), truncated after amino acid position 305 (pentamers) (simian virus 40) (UniProt P03087); experiment: negative-stain electron microscopy; purified pentamers diluted in PBS pH 7.2 at 20 µg/ml, stained with 1% uranyl acetate, Tecnai T12; step: VP1 chains to pentamer
[2] = target: the molecule itself; experiment: as above

Molecule	stoichiometry N [1]	stoichiometry N [2]
C-terminal deletion VP1 mutant (ΔC), truncated after amino acid position 305 (pentamers) (from UniProt P03087 1-305) (domain or fragment)	5	–
full-length wild-type SV40 VP1 (pentamers) (natural protein, major capsid protein VP1 of simian virus 40, full length, wild type, in the pGEX-4T2 plasmid; The virus stocks are strain 776, but no strain is stated for the bacterial construct; The preparations held pentamers and higher-order structures; no intact VLPs were seen; also called major capsid protein VP1; wild-type VP1 pentamers) MAPTKRKGSCPGAAPKKPKEPVQVPKLVIKGGIEVLGVKTGVDSFTEVECFLNPQMGNPDEHQKGLSKSLAAEKQFTDDSPDKEQLPCYSVARIPLPNINEDLTCGNILMWEAVTVKTEVIGVTAMLNLHSGTQKTHENGAGKPIQGSNFHFFAVGGEPLELQGVLANYRTKYPAQTVTPKNATVDSQQMNTDHKAVLDKDNAYPVECWVPDPSKNENTRYFGTYTGGENVPPVLHITNTATTVLLDEQGVGPLCKADSLYVSAVDICGLFTNTSGTQQWKGLPRYFKITLRKRSVKNPYPISFLLSDLINRRTQRVDGQPMIGMSSQVEEVRVYEDTEELPGDPDMIRYIDEFGQTTTRMQ	–	5

From paper PMC4807364, “Interaction between Simian Virus 40 Major Capsid Protein VP1 and Cell Surface Ganglioside GM1 Triggers Vacuole Formation” (mBio, 2016)
